This is an account of results in publication PMC7755903 (Nature Communications, 2020).

Positions count from the first letter of the chain named. Names and notes keep the numbering of the source. Values joined by “and” are separate entries in the source; they are usually repeats but may differ in a detail not shown here. Equal values may be shown once.

B1: humanized E104.v2 IgG2 (antibody, V domains shown)
VH: EVQLVESGPGLVKPSETLSLTCTVSRFSLIGYAITWIRQPPGKGLEWIGGISSAATTFYSSWAKSRVTISRDTSKNQVSLKLSSVTAADTAVYYCARDPRGYGAALDRLDLWGQGTLVTVSS
VL: DIQMTQSPSSLSASVGDRVTITCQSIKSVYNNRLGWYQQKPGKAPKLLIYETSILTSGVPSRFSGSGSGTDFTLTISSLQPEDFATYYCAGGFDRSGDTTFGQGTKVEIK
notes: humanized E104.v2 VH: as the VH of Sm2 (E104.v1, PDB 6VVU heavy chain) with V71R and F78V (Kabat numbering); human IgG2 heavy chain constant region, the CH1 domain up to the upper hinge; upper hinge of human IgG2; human IgG2 heavy chain constant region after the upper hinge (core and lower hinge, CH2, CH3); IgG2 isotype version of E104.v2; copies: 2 + 2
B2: E104.v2 IgG1 hinge variant G1-TH (antibody, V domains shown)
VH: B1 VH
VL: B1 VL
notes: humanized E104.v2 VH: as the VH of Sm2 (E104.v1, PDB 6VVU heavy chain) with V71R and F78V (Kabat numbering); human IgG1 heavy chain constant region, the CH1 domain up to the upper hinge; human IgG1 heavy chain constant region after the upper hinge (core and lower hinge, CH2, CH3); IgG1 with shortened upper hinge; copies: 2 + 2
B3: E104.v2 IgG1 hinge variant G1 + GGS (antibody, V domains shown)
VH: B1 VH
VL: B1 VL
notes: variable domain of the heavy chain as in m6 (PDB 6VVU, Fab heavy chain) with V71R and F78V (Kabat numbering); human IgG1 heavy chain constant region before the upper hinge (CH1); upper hinge of the variant; human IgG1 heavy chain constant region after the upper hinge (core hinge from C226, CH2, CH3); as the light chain of m6 (PDB 6VVU, Fab light chain); IgG1 with an extended upper hinge; source: …
B4: E104.v2 IgG1 hinge variant G1 + (GGS)3 (antibody, V domains shown)
VH: B1 VH
VL: B1 VL
notes: as for B3
B5: E104.v2 IgG1 hinge variant G1.P5 (antibody, V domains shown)
VH: B1 VH
VL: B1 VL
notes: variable domain of the heavy chain as in m6 (PDB 6VVU, Fab heavy chain) with V71R and F78V (Kabat numbering); human IgG1 heavy chain constant region before the upper hinge (CH1); upper hinge of the variant; human IgG1 heavy chain constant region after the upper hinge (core hinge from C226, CH2, CH3); as the light chain of m6 (PDB 6VVU, Fab light chain); IgG1 with five prolines in the upper hinge; …
B6: E104.v2 IgG1 hinge variant G1-KTH (antibody, V domains shown)
VH: B1 VH
VL: B1 VL
notes: variable domain of the heavy chain as in m6 (PDB 6VVU, Fab heavy chain) with V71R and F78V (Kabat numbering); human IgG1 heavy chain constant region before the upper hinge (CH1); upper hinge of the variant; human IgG1 heavy chain constant region after the upper hinge (core hinge from C226, CH2, CH3); as the light chain of m6 (PDB 6VVU, Fab light chain); IgG1 with a shortened upper hinge; source: …
B7: E104.v2 IgG1 hinge variant G1.G5 (antibody, V domains shown)
VH: B1 VH
VL: B1 VL
notes: variable domain of the heavy chain as in m6 (PDB 6VVU, Fab heavy chain) with V71R and F78V (Kabat numbering); human IgG1 heavy chain constant region before the upper hinge (CH1); upper hinge of the variant; human IgG1 heavy chain constant region after the upper hinge (core hinge from C226, CH2, CH3); as the light chain of m6 (PDB 6VVU, Fab light chain); IgG1 with five glycines in the upper hinge; …
B8: humanized E104.v2 IgG1 (antibody, V domains shown)
VH: B1 VH
VL: B1 VL
notes: variable domain of the heavy chain as in m6 (PDB 6VVU, Fab heavy chain) with V71R and F78V (Kabat numbering); human IgG1 heavy chain constant region; as the light chain of m6 (PDB 6VVU, Fab light chain); IgG1; also called IgG1.v2; WT IgG1 hinge; source: 293 cells, transient transfection, purified (MabSelect SuRe, SEC); copies: 2 + 2
B9: E104.v2 IgG1 hinge variant G1 + GG (antibody, V domains shown)
VH: B1 VH
VL: B1 VL
notes: as for B3
B10: E104.v2 IgG1 hinge variant G1-TH (antibody, V domains shown)
VH: B1 VH
VL: B1 VL
notes: as for B6
B11: E104.v2 IgG2 (antibody, V domains shown)
VH: B1 VH
VL: B1 VL
notes: variable domain of the heavy chain as in m6 (PDB 6VVU, Fab heavy chain) with V71R and F78V (Kabat numbering); human IgG2 heavy chain constant region; upper hinge printed as ERKCCVE; as the light chain of m6 (PDB 6VVU, Fab light chain); IgG2 isotype version of E104.v2; source: 293 cells, transient transfection, purified (MabSelect SuRe, SEC); copies: 2 + 2
B12: humanized E104.v2 IgG4 (antibody, V domains shown)
VH: B1 VH
VL: B1 VL
notes: variable domain of the heavy chain as in m6 (PDB 6VVU, Fab heavy chain) with V71R and F78V (Kabat numbering); human IgG4 heavy chain constant region; upper hinge printed as ESKYGPP; as the light chain of m6 (PDB 6VVU, Fab light chain); IgG4 isotype version of E104.v2; source: 293 cells, transient transfection, purified (MabSelect SuRe, SEC); copies: 2 + 2
B13: E104.v2 IgG1 hinge variant G1-H (antibody, V domains shown)
VH: B1 VH
VL: B1 VL
notes: as for B6
B14: E104.v2 IgG1 hinge variant G1 + G (antibody, V domains shown)
VH: B1 VH
VL: B1 VL
notes: as for B3
B15: humanized E104.v1 IgG1 (antibody, V domains shown)
VH: B1 VH with R71V, V78F
VL: B1 VL
notes: variable domain of the heavy chain as in m6 (PDB 6VVU, Fab heavy chain); human IgG1 heavy chain constant region; as the light chain of m6 (PDB 6VVU, Fab light chain); IgG1; also called IgG1.v1; source: 293 cells, transient transfection, purified (MabSelect SuRe, SEC); copies: 2 + 2
B16: E104.v2 IgG1 hinge variant G1.CC (antibody, V domains shown)
VH: B1 VH
VL: B1 VL
notes: variable domain of the heavy chain as in m6 (PDB 6VVU, Fab heavy chain) with V71R and F78V (Kabat numbering); human IgG1 heavy chain constant region before the upper hinge (CH1); upper hinge of the variant; human IgG1 heavy chain constant region after the upper hinge (core hinge from C226, CH2, CH3); as the light chain of m6 (PDB 6VVU, Fab light chain); IgG1 with two added cysteines in the upper …
B17: E104.v2 Fab (Fab, V domains shown)
VH: B1 VH
VL: B1 VL
notes: as the heavy chain of m6 (PDB 6VVU, Fab heavy chain) with the two framework changes V71R and F78V (Kabat numbering); as the light chain of m6 (PDB 6VVU, Fab light chain); No structure of v2 was obtained; it differs from v1 only at heavy chain framework positions 71 and 78; also called Fab E104.v2; source: E. coli, purified (Protein G, SP Sepharose, S75 SEC)

One assay has as its target T1, human βI-tryptase monomer (Homo sapiens, UniProt Q15661).
T1 construct: mature wild-type human βI-tryptase, Uniprot Q15661, Ile31-Pro275 (Ile16-Pro246 in chymotrypsinogen numbering); The SPR methods say only 'human βI-tryptase monomer'; The methods describe the monomeric form as the zymogen, which still carries the N-terminal His6 tag and enterokinase site before Ile16; also called monomeric βI-tryptase; β-tryptase; source: Trichoplusia ni cells (baculovirus, …)
Description: SPR; Biacore T200; antibody captured on a CM5 chip by immobilised mouse anti-human IgG (Fc); threefold dilutions of βI-tryptase monomer injected at 30 µL/min, 25 °C, 3-min association, 10-min dissociation; 1:1 Langmuir fit; n = 2. Conditions: both partners purified. Background: In SPR one partner is held on a chip, and binding of the other changes the refractive index at the surface.
T1 sequence (Q15661 31-275): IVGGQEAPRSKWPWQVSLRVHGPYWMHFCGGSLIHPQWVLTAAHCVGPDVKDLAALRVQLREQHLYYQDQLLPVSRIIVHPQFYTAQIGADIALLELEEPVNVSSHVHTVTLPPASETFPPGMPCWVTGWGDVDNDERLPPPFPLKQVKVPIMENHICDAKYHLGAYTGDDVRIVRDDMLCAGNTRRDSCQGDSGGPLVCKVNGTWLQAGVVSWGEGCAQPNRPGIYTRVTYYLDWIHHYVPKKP
Usually Kd stands for the equilibrium constant for the complex coming apart. Low values mean higher affinity, high ones lower affinity. In the case of B1, the dissociation constant (Kd) is 0.537 nM and 0.672 nM.

As to B2, the dissociation constant (Kd) is 0.56 nM and 0.471 nM.

The target in another assay is T2, human βI-tryptase monomer (Homo sapiens, UniProt Q15661).
T2 construct: mature human βI-tryptase, Ile31-Pro275 of Uniprot Q15661 (Ile16-Pro246 in chymotrypsinogen numbering); The monomer used in SPR and HDX-MS; also called monomeric βI-tryptase; monomeric β-tryptase
Description: SPR; Biacore T200; E104 IgG variants captured on immobilised mouse anti-human IgG (Fc) antibody on CM5 chips; threefold dilutions of human βI-tryptase monomer injected at 30 µL/min, 25 °C; 1:1 Langmuir model; n = 2. Conditions: both partners purified.
T2 sequence (Q15661 31-275): as above
B3 came in with a dissociation constant Kd of 0.5 ± 0.05 nM.

B4 yielded a dissociation constant Kd of 0.5 ± 0.1 nM.

For B5, the Kd turned out to be 0.4 ± 0.1 nM.

B6 yielded a Kd of 0.5 ± 0.09 nM.

As for B7, the dissociation constant Kd amounted to 0.6 ± 0.1 nM.

Take B8: binding was characterised by a dissociation constant (Kd) of 0.6 ± 0.01 nM.

As for B9, the dissociation constant (Kd) came to 0.4 ± 0.02 nM.

In turn, B10 registered a dissociation constant Kd of 0.5 ± 0.07 nM. This Kd and that of the molecule before are within 1.5-fold of each other.

B11 came in with a Kd of 0.6 ± 0.1 nM.

Turning to B12, the Kd worked out at 0.7 ± 0.04 nM.

Molecule B13 gave a Kd of 0.6 ± 0.1 nM.

For B14, binding was put at a Kd of 0.5 ± 0.01 nM.

B15 returned a Kd of 0.5 ± 0.02 nM.

In the case of B16, the Kd is 0.4 ± 0.03 nM.

A further assay deals with T3, βI-tryptase tetramer mutant I99C (human, engineered disulfide bond in the large interface (C99)).
T3 construct: mature human βI-tryptase, Ile31-Pro275 of Uniprot Q15661 (Ile16-Pro246 in chymotrypsinogen numbering); numbers count on: chymotrypsinogen numbering; Loaded as a tetramer; with E104.v2 Fab it runs as a complex of the disulfide-linked dimer; also called disulfide-locked large interface mutant; not shown: His6, N-terminal, cleaved
T3 sequence (chain, as listed by the source I99C I99C): as the sequence (Q15661 31-275) above, with I88C counted along it
The assay is described as follows: SEC; without heparin; tetrameric βI-tryptase (WT, Y75C or I99C) or zymogen monomer mixed with a twofold molar excess of Fab, 15 min at 25 °C; S200GL column in 10 mM MOPS pH 6.8, 2 M NaCl; fractions checked by SDS-PAGE. Conditions: both partners purified. On the technique in general: Size exclusion chromatography separates by hydrodynamic size, large species first.
With B17, the “stoichiometry N” value is 2 Fab per disulfide-linked dimer.
